Patent publication US20260184815A1 (published 2026)
Blank lines part the entries; values can stand above or below the binder they belong to.

Target: T1, human plasma kallikrein (human, UniProt P03952 20-390; P03952 391-638)
T1 construct: also called pKal; Human pKal
Assay: ELISA, biotinylated pKal signal over streptavidin background
Text: Abbreviations used: “T/B” is the ELISA signal obtained using of the “target” (biotinylated plasma kallikrein) divided by the ELISA signal of the “background” (streptavidin); both of which were coated on microtiter plates, “nd” is not determined. The symbol “q” refers to the amber suppressible stop codon (TAG), which is translated as glutamine (Q) in strains of E. coli such as the TG1 cells that were used to express the Fab fragments.

T1 sequence (P03952 20-390, chain 1 of 2): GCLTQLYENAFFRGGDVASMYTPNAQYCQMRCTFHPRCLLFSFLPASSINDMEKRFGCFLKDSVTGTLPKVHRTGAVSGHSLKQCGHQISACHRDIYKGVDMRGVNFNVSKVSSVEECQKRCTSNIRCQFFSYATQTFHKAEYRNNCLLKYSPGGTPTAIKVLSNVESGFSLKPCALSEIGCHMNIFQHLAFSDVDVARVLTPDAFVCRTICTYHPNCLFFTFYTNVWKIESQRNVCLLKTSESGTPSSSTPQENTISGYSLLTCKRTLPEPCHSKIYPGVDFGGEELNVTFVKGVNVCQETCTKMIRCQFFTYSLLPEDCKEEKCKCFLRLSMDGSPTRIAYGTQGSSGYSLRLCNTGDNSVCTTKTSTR
T1 sequence (P03952 391-638, chain 2 of 2): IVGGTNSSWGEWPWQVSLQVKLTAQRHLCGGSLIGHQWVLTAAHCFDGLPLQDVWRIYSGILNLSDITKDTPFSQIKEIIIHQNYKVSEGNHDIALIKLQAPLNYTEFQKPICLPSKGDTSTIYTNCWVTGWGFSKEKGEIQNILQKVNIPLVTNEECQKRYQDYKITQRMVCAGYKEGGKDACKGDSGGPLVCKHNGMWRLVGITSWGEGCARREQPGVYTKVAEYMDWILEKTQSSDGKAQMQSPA

ELISA (T/B): 20.8 T/B
B1: M10-A12 (Fab, V domains shown)
VH: EVQLLESGGGLVQPGGSLRLSCAASGFTFSLYLMHWVRQAPGKGLEWVSSIYSSGGFTTYADSVKGRFTISRDNSKNTLYLQMNSLRAEDTAVYYCARDTDYGMDVWGQGTTVTVSS
VL: DIQMTQSPLSLSAFVGDRVTITCRASRDISVYLNWYQLKSGKAPKLLIYGASSLQSGVPSRFSGSGSGTDFTLTITSLQPEDFATYYCQQSYSIPFTFGGGTKVETK
notes: HC as printed runs into CH1

ELISA (T/B): 4.4 T/B
B2: M9-H03 (Fab, V domains shown)
VH: EVQLLESGGGLVQPGGSLRLSCAASGFTFSWYSMGWVRQAPGKGLEWVSYIVPSGGYTMYADSVKGRFTISRDNSKNTLYLQMNSLRAEDTAVYYCARDPGVSYYYYGMDVWGQGTTVTVSS
VL: QYELTQAPSVSVAPGQTASITCSGDKLGNRYTSWYQQKPGQSPVLVIFQDNKRPSGIPERFSGSNSGNTATLTISGTQAMDEADYYCQALDSNTYVFGTGTKVTVL
notes: HC as printed runs into CH1

ELISA (T/B): 16.1 T/B
B3: M9-H04 (Fab, V domains shown)
VH: EVQLLESGGGLVQPGGSLRLSCAASGFTFSAYTMWWVRQAPGKGLEWVSSIWPSGGSTFYADSVKGRFTISRDNSKNTLYLQMNSLRAEDTAVYYCARTYDSSAGEVDYWGQGTLVTVSS
VL: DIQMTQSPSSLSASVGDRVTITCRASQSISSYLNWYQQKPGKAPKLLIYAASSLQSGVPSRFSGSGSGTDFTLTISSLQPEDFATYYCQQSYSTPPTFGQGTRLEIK
notes: HC as printed runs into CH1

ELISA (T/B): 7 T/B
B4: M9-F09 (Fab, V domains shown)
VH: EVQLLESGGGLVQPGGSLRLSCAASGFTFSSYPMGWVRQAPGKGLEWVSRISSSGGMTIYADSVKGRFTISRDNSKNTLYLQMNSLRAEDTAVYYCARDDWNVGMDVWGQGTTVTVSS
VL: DIQMTQSPSSLSASVGDRVTITCRASQSISSYLNWYQQKPGKAPKLLIYAASSLQSGVPSKFSGSGSGTDYTLTISSLQPEDFATYYCQQTYTTPWTFGQGTKVEIK
notes: HC as printed runs into CH1; (as printed for M28-E01)

ELISA (T/B): 14.1 T/B
B5: M10-B09 (Fab, V domains shown)
VH: EVQLLESGGGLVQPGGSLRLSCAASGFTFSWYEMSWVRQAPGKGLEWVSRIWPSGGVTMYADSVKGRFTISRDNSKNTLYLQMNSLRAEDTAVYYCTRTSITTVGMDVWGQGTTVTVSS
VL: DIQMTQSPSSLSASVGDGVTITCRASQSISTYLNWYQQRPGKAPKLLIYGASSLQSGVPSRFSGSGSGTDFTLTISSLQREDFATYYCQQSFSTPWTFGQGTRVEIK
notes: HC as printed runs into CH1; HC amber q (LqMNS) written as Q

ELISA (T/B): 35.9 T/B
B6: M9-D08 (Fab, V domains shown)
VH: EVQLLESGGGLVQPGGSLRLSCAASGFTFSWYKMMWVRQAPGKGLEWVSSIYPSGGWTNYADSVKGRFTISRDNSKNTLYLQMNSLRAEDTAVYYCTRGSPWGDDAFDIWGQGTMVTVSS
VL: DIQMTQSPSSLSASVGDRVTLTCRASRTISFYLNWYQQKAGKAPELLIYGGSSLHSGVPSRFSGSGSGTDFSLTISNLQPEDIAVYYCQQSFSSPWTFGQGTKVEIK
notes: HC as printed runs into CH1

ELISA (T/B): 7.8 T/B
B7: M9-C10 (Fab, V domains shown)
VH: EVQLLESGGGLVQPGGSLRLSCAASGFTFSLYPMQWVRQAPGKGLEWVSSIGSSGGMTFYADSVKGRFTISRDNSKNTLYLQMNSLRAEDTAVYYCTREVGAAGFAFDIWGQGTMVTVSS
VL: DIQMTQSPSSLSASVGDRVTITCRASQGISSYLNWYQQKPGNAPNLLIYGASSLQSGVPSRFSGSGSGTDFTLTISSLQPEDFATYYCQESYSTLFTFGPGTTVEIK
notes: HC as printed runs into CH1

ELISA (T/B): 8.4 T/B
B8: M9-F10 (Fab, V domains shown)
VH: EVQLLESGGGLVQPGGSLRLSCAASGFTFSDYDMEWVRQAPGKGLEWVSSISPSGGSTIYADSVKGRFTISRDNSKNTLYLQMNSLRAEDTAVYYCARQGLLTAFDIWGQGTMVTVSS
VL: DIQMTQSPSSLSASVGDRVTITCRASQSINTYLNWYQQKPGKAPKVLIHAASTLESGVPSRFSGSGSGTDFTLTISSLQPEDFATYYCQQSYSTPYTFGQGTKLEVR
notes: HC as printed runs into CH1

ELISA (T/B): 10.9 T/B
B9: M9-F08 (Fab, V domains shown)
VH: EVQLLESGGGLVQPGGSLRLSCAASGFTFSPYAMTWVRQAPGKGLEWVSVIYPSGGFTDYADSVKGRFTISRDNSKNTLYLQMNSLRAEDTAMYYCARASGSYLDAFDIWGQGTMVTVSS
VL: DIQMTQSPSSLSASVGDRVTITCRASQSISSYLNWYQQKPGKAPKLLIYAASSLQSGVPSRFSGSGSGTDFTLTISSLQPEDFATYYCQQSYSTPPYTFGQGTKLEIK
notes: HC as printed runs into CH1; LC amber q (QMTqSPS) written as Q

ELISA (T/B): 5.3 T/B
B10: M10-C11 (Fab, V domains shown)
VH: EVQLLESGGGLVQPGGSLRLSCAASGFTFSMYPMMWVRQAPGKGLEWVSYISPSGGMTDYADSVKGRFTISRDNSKNTLYLQMNSLRAEDMAVYYCARVAGSSDAFDIWGQGTMVTVSS
VL: DIQMTQSPSSLSASVGDRVTITCRASQSISIYLNWYQQKPEKAPKLLIFAASTLQSGVPSRFSGSGSGTDFTLTISNLQPEDFATYYCQQSHSIPPTFGLGTKVEVK
notes: HC as printed runs into CH1

ELISA (T/B): 33.7 T/B
B11: M10-A03 (Fab, V domains shown)
VH: EVQLLESGGGLVQPGGSLRLSCAASGFTFSPYPMQWVRQAPGKGLEWVSSISSSGGMTEYADSVKGRFTISRDNSKNTLYLQMNSLRAEDTAVYYCARDDYGGKGGAFDIWGQGTMVTVSS
VL: DIQMTQSPSSLSASVGDRVTITCRASQRISFYLNWFQQKPGKAPNLLIYGASSLQSGVPSRFSGSGSGTDFTLTISSLQPKDFGTYYCQQTFSTPNTFGQGTKLEIK
notes: HC as printed runs into CH1

ELISA (T/B): 18.8 T/B
B12: M9-E04 (Fab, V domains shown)
VH: EVQLLESGGGLVQPGGSLRLSCAASGFTFSEYDMMWVRQAPGKGLEWVSSIGSSGGMTYYADSVKGRFTISRDNSKNTLYLQMNSLRAEDTAVYYCARDQVAAAAIDYWGQGTLVTVSS
VL: DIQMIQSPSSLSASVGDRVTITCRASQSISGYLNWYQQRSGKAPKLLIFAASNLQTGVPSRFSGSGSGTDFTLTINNLQPEDFATYYCQQSHTPPKTFGPGTKVDIK
notes: HC as printed runs into CH1

ELISA (T/B): 4.8 T/B
B13: M10-F09 (Fab, V domains shown)
VH: EVQLLESGGGLVQPGGSLRLSCAASGFTFSNYDMMWVRQAPGKGLEWVSYISPSGGFTRYADSVKGRFTISRDNSKNTLYLQMNSLRAEDTATYYCAKDIYYYNWGPSHYFDSWGQGTLVTVSS
VL: DIQMTQSPSSLSASVGDRVTITCRASQTIDDDLIWYQQKPGRAPKLLIYAASSLQSGVPSRFSGSGSGTDFTLTITSLQPEDFATYYCQQSYNIPRTFGQGTKLESK
notes: HC as printed runs into CH1

ELISA (T/B): 6.4 T/B
B14: M10-D11 (Fab, V domains shown)
VH: EVQLLESGGGLVQPGGSLRLSCAASGFTFSAYPMNWVRQAPGKGLEWVSRISSSGGNTSYADSVKGRFTISRDNSKNTLYLQMNSLRAEDTAVYYCALGYLGYWGQGTLVTVSS
VL: not shown
notes: HC as printed runs into CH1

ELISA (T/B): 32.8 T/B
B15: M10-E06 (Fab, V domains shown)
VH: EVQLLESGGGLVQPGGSLRLSCAASGFTFSLYRMFWVRQAPGKGLEWVSSIWSSGGPTMYADSVKGRFTISRDNSKNTLYLQMNSLRAEDTAVYYCAREYPSTYYFDYWGQGTLVTVSS
VL: DIQMTQSPSSLSASVGDRVTITCRASQSISTYLNWYQQKPGKAPKLLIYGASSLQSGVPSRFSGSGSGTDFTLTISSLQPEDFTIYYCQQSYSDPYTFGQGTKLDIK
notes: HC as printed runs into CH1

ELISA (T/B): 3.5 T/B
B16: M9-H02 (Fab, V domains shown)
VH: EVQLLESGGGLVQPGGSLRLSCAASGFTFSAYMMIWVRQAPGKGLEWVSVIYPSGGVTMYADSVKGRFTISRDNSKNTLYLQMNSLRAEDTAVYYCARGTVGASDAFDIWGQGTMVTVSS
VL: DIQMTQSPSSLSASVGDRVIITCRASRSIATYLNWYQQKPGKAPNLLIFGASTLQSGVPSRFSGSGSGTDFTLTISDLQPEDFATYYCQQSFSDPYTFGQGTNLEMK
notes: HC as printed runs into CH1

ELISA (T/B): 4.8 T/B
B17: M9-G08 (Fab, V domains shown)
VH: EVQLLESGGGLVQPGGSLRLSCAASGFTFSYYTMLWVRQAPGKGLEWVSSIYPSGGFTMYADSVKGRFTISRDNSKNTLYLQMNSLRAEDTAVYYCARVDTAMAMIDYWGQGTLVTVSS
VL: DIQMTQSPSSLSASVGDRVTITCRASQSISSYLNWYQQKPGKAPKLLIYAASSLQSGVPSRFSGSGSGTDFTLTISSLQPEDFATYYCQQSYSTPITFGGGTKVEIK
notes: HC as printed runs into CH1
